From article PMC6721692, “Extracellular Juxtamembrane Motif Critical for TrkB Preformed Dimer and Activation” (Cells, 2019)

Molecular target: the molecule itself
Assay: native gel or EMSA; native PAGE (no SDS, no β-ME) of lysates of CHO-TrkBdelECD365-eGFP cells treated with vehicle, BDNF or MM12 (1.0 nM, 37 °C); Western blot with MM12

B1: TrkBdelECD365-eGFP (human truncated TrkB lacking the ECD up to residue 365, EJM retained) (domain or fragment)
chain: not shown
notes: EJM, transmembrane and intracellular parts retained; amplified from pGFP-hTrkB with the printed primers; The signal peptide of the vector pGFP-hTrkB is not described; also called hTrkBdelECD365-eGFP; TrkB lacking ECD365; source: CHO cells, stably transfected (CHO-TrkBdelECD365-eGFP), in lysate; not shown: eGFP, C-terminal, kept
stoichiometry N: 2
